Measurements taken from US20070004634A1.
No end group written: not given here.

T1: soluble human insulin receptor-immunoglobulin heavy chain chimera (sIR-Fc; Bass et al., 1996) (human), P06213
T1 chain: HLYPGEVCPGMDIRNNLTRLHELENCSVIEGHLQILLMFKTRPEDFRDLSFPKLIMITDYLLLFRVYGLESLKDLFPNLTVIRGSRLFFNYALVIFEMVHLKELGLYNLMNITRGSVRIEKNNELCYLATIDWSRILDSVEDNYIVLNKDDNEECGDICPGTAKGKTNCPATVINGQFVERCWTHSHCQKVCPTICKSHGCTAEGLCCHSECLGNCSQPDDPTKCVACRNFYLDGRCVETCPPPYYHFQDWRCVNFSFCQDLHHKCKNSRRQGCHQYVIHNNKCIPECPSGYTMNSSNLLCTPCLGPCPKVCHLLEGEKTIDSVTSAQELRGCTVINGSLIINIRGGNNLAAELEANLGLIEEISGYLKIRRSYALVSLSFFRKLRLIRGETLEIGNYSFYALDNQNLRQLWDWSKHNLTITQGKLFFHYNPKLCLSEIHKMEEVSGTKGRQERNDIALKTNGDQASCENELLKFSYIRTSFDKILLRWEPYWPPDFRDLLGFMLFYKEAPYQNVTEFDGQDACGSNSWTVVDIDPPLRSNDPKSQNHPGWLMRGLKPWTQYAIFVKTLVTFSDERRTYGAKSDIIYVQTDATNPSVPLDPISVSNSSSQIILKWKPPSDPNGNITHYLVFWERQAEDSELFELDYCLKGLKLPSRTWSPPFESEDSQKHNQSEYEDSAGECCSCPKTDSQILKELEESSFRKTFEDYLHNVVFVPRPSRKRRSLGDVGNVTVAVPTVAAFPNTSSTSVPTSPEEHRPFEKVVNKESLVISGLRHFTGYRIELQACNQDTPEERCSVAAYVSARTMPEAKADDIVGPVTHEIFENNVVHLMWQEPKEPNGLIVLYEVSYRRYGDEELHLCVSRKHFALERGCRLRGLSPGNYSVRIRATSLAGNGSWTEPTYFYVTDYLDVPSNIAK


Experiments:
[1] = target: soluble IGF-1R (recombinant human IGF-1R extracellular domain, R&D Systems Cat. # 391-GR/CF) (human), P08069; assay: phage ELISA
[2] = target: T1, soluble human insulin …; assay: phage ELISA
[3] = target: soluble human insulin receptor-immunoglobulin heavy chain chimera (sIR-Fc; Bass et al., 1996) (human) (UniProt P06213); assay: phage ELISA
[4] = target: His-tagged soluble recombinant human IGF-IR (srhIGF-1R-his) (human), P08069; assay: ALPHAScreen competition against b-hIGF-1 on srhIGF-1R-his
[5] = target: IGF-1R on cells (MCF-7, MiaPaCa, FDC-P2 cells expressing human IGF-1R) (human) (UniProt P08069); assay: cell-based or functional assay

Row | IGF-1R/IR ratio comparison [1] | ratio over background [1] | IR/IGF-1R ratio comparison [2] | ratio over background [2] | IR/IGF-1R ratio comparison [3] | ratio over background [3] | IC50 [4] [nM] | Cellular EC50 (M), FDC-P2 cell proliferation [5] [M] | Binder
1 |  |  |  |  | 0.3 | 1.9 |  |  | SQAGSAFYAWFDQVLRTVHSA [20E2Bβ-4-G6-IR]
2 |  |  |  |  |  |  | 2200 |  | WLDQERAWLWCEISGRGCLS (modifications not checked) [lig-D815]
3 |  |  |  |  |  |  | 710 | 3e-06 | GIISQSCPESFYDWFAGQVSDPWWCW (peptide, from a related filing, modifications not checked) [G33-lig]

Second part, the binder before the results:

Row | Binder | IGF-1R/IR ratio comparison [1] | ratio over background [1] | IR/IGF-1R ratio comparison [2] | ratio over background [2] | IR/IGF-1R ratio comparison [3] | ratio over background [3] | IC50 [4] [nM] | Cellular EC50 (M), FDC-P2 cell proliferation [5] [M]
4 | CCLLCRFQQNFYDWFVCQGISRLRPL (modifications not checked) [H2CA-2-B4-IGFR] | 3.6 | 4.1 | 0.3 | 1.1 |  |  |  | 
5 | RCGRWXAEMGAGDDPFYHKLSELVCG (not fully specified; X: residue not identified in the source; cysteine pairing not given here) [B6Hα-2-C4-IR] | 11 | 9.9 | 0.1 | 0.9 |  |  |  | 
6 | CMMXDGFYAGLGCLLTAGEGR (not fully specified; printed as CMM.DGFYAGLGCLLTAGEGR; X: residue not identified in the source; cysteine pairing not given here) [20E2B-3-C11-IGFR] | 7.5 | 15.4 | 0.1 | 2.1 |  |  |  | 
7 | VVTPVNFYRALEALVRGXRLG (not fully specified; printed as VVTPVNFYRALEALVRG.RLG; X: residue not identified in the source) [20E2B-2-B11-IGFR] | 9.4 | 10.6 | 0.1 | 1.1 |  |  |  | 
